Measurements as given in the supplement of paper PMC11246515.
± gives the standard deviation of the averaged measurements.

Test: total protein half-life in vivo (active degradation + dilution); higher = more stable protein
[1] = E. coli NCM3722 delta-clpP delta-lon delta-hslV, growth: N-lim chemostat, doubling time 6 h
[2] = E. coli NCM3722 delta-clpP, growth: N-lim chemostat, doubling time 6 h
[3] = E. coli NCM3722 delta-hslV, growth: N-lim chemostat, doubling time 6 h
[4] = E. coli NCM3722 delta-lon, growth: N-lim chemostat, doubling time 6 h
[5] = E. coli NCM3722 delta-smpB, growth: N-lim chemostat, doubling time 6 h
[6] = wild type E. coli NCM3722, growth: C-lim chemostat, doubling time 3 h
[7] = wild type E. coli NCM3722, growth: C-lim chemostat, doubling time 6 h
[8] = wild type E. coli NCM3722, growth: C-lim chemostat, doubling time 12 h
[9] = wild type E. coli NCM3722, growth: N-lim chemostat, doubling time 6 h
[10] = wild type E. coli NCM3722, growth: N-lim chemostat, doubling time 12 h
[11] = wild type E. coli NCM3722, growth: P-lim chemostat, doubling time 6 h
[12] = wild type E. coli NCM3722, growth: P-lim chemostat, doubling time 12 h

Sequence	total protein half-life in vivo [1] [h]	total protein half-life in vivo [2] [h]	total protein half-life in vivo [3] [h]	total protein half-life in vivo [4] [h]	total protein half-life in vivo [5] [h]	total protein half-life in vivo [6] [h]	total protein half-life in vivo [7] [h]	total protein half-life in vivo [8] [h]	total protein half-life in vivo [9] [h]	total protein half-life in vivo [10] [h]	total protein half-life in vivo [11] [h]	total protein half-life in vivo [12] [h]
MSNNGSSPLVLWYNQLGMNDVDRVGGKNASLGEMITNLSGMGVSVPNGFATTADAFNQFLDQSGVNQRIYELLDKTDIDDVTQLAKAGAQIRQWIIDTPFQPELENAIREAYAQLSADDENASFAVRSSATAEDMPDASFAGQQETFLNVQGFDAVLVAVKHVFASLFNDRAISYRVHQGYDHRGVALSAGVQRMVRSDLASSGVMFSIDTESGFDQVVFITSAWGLGEMVVQGAVNPDEFYVHKPTLAANRPAIVRRTMGSKKIRMVYAPTQEHGKQVKIEDVPQEQRDIFSLTNEEVQELAKQAVQIEKHYGRPMDIEWAKDGHTGKLFIVQARPETVRSRGQVMERYTLHSQGKIIAEGRAIGHRIGAGPVKVIHDISEMNRIEPGDVLVTDMTDPDWEPIMKKASAIVTNRGGRTCHAAIIARELGIPAVVGCGDATERMKDGENVTVSCAEGDTGYVYAELLEFSVKSSSVETMPDLPLKVMMNVGNPDRAFDFACLPNEGVGLARLEFIINRMIGVHPRALLEFDDQEPQLQNEIREMMKGFDSPREFYVGRLTEGIATLGAAFYPKRVIVRLSDFKSNEYANLVGGERYEPDEENPMLGFRGAGRYVSDSFRDCFALECEAVKRVRNDMGLTNVEIMIPFVRTVDQAKAVVEELARQGLKRGENGLKIIMMCEIPSNALLAEQFLEYFDGFSIGSNDMTQLALGLDRDSGVVSELFDERNDAVKALLSMAIRAAKKQGKYVGICGQGPSDHEDFAAWLMEEGIDSLSLNPDTVVQTWLSLAELKK	4.83 ± 0.48	4.47 ± 0.29	4.6 ± 0.19	4.853 ± 0.045	4.21 ± 0.38	3.08 ± 0.22	5.77 ± 0.31	10.1 ± 1	4.5 ± 0.17	7.03 ± 0.19	5.9 ± 0.38	11.7 ± 0.34
MRYIVALTGGIGSGKSTVANAFADLGINVIDADIIARQVVEPGAPALHAIADHFGANMIAADGTLQRRALRERIFANPEEKNWLNALLHPLIQQETQHQIQQATSPYVLWVVPLLVENSLYKKANRVLVVDVSPETQLKRTMQRDDVTREHVEQILAAQATREARLAVADDVIDNNGAPDAIASDVARLHAHYLQLASQFVSQEKP [P0A6I9]	4.61 ± 0.82	4.08 ± 0.2	4.04 ± 0.14	4.32 ± 0.1	4.78 ± 0.96	3.06 ± 0.28	4.83 ± 0.92	9.87 ± 0.29	4.18 ± 0.04	6.95 ± 0.2	5.34 ± 0.12	11.1 ± 0.22
MAKVSLEKDKIKFLLVEGVHQKALESLRAAGYTNIEFHKGALDDEQLKESIRDAHFIGLRSRTHLTEDVINAAEKLVAIGCFCIGTNQVDLDAAAKRGIPVFNAPFSNTRSVAELVIGELLLLLRGVPEANAKAHRGVWNKLAAGSFEARGKKLGIIGYGHIGTQLGILAESLGMYVYFYDIENKLPLGNATQVQHLSDLLNMSDVVSLHVPENPSTKNMMGAKEISLMKPGSLLINASRGTVVDIPALCDALASKHLAGAAIDVFPTEPATNSDPFTSPLCEFDNVLLTPHIGGSTQEAQENIGLEVAGKLIKYSDNGSTLSAVNFPEVSLPLHGGRRLMHIHENRPGVLTALNKIFAEQGVNIAAQYLQTSAQMGYVVIDIEADEDVAEKALQAMKAIPGTIRARLLY [P0A9T0]	5.06 ± 0.26	4.512 ± 0.0057	3.75 ± 0.028	4.11 ± 0.16	4.09 ± 0.058	3.09 ± 0.13	5.65 ± 0.34	11.5 ± 1.3	3.94 ± 0.12	5.84 ± 0.19	6.02 ± 0.23	11.8 ± 0.39
